Here are results for 14 sequences from the supplement of paper PMC12764529.

± gives the half width of the 95% confidence interval.

Data set [1] in a line: folding stability dG unfold from chymotrypsin proteolysis; higher = more stable. In short, it runs like this: (§1)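 Unfolding free energy was derived, per protease or combined, by relating Bayesian-fitted K50 values from sequencing counts to a sequence-predicted unfolded-state K50 and a shared folded-state K50. The underlying digests exposed cysteine-free mini-proteins under 80 residues, in a PA-tagged cDNA display construct, to trypsin and chymotrypsin at 11 threefold-diluted concentrations and to a no-protease condition. A filter kept only designs with AlphaFold2 dimer inter-PAE above 15.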

Data set [2] in a line: folding stability dG unfold from trypsin proteolysis; higher = more stable. Summed up:
as §1

Data set [3] can be described thus: folding stability dG unfold (combined trypsin and chymotrypsin); higher = more stable. Summed up: as §1

Regarding “SAGGSAPWRPITITIPGSWEEIKELAKKFVNDGNIRDVEVEPVPDPGYYKVTVWVRDPNGNWYLVFSAGGSA [r15_177_TrROS]”, the entries for the “folding stability dG unfold” value in data set [1], in data set [2] and in data set [3] were 3.204 ± 0.031 kcal/mol, 2.23 ± 0.16 kcal/mol and 2.9 ± 0.2 kcal/mol, respectively.

For “SAGGSAPWVTLPIIIMFDSPEQAVEEVKPIFQELFGIKDVNVEEEPMPNGMVFVPIEITIPAENMKSAGGSA [r15_173_TrROS]”, the “folding stability dG unfold” value turned out to be 1.38 ± 0.07 kcal/mol in data set [1], 0.547 ± 0.061 kcal/mol in data set [2] and 1.09 ± 0.092 kcal/mol in data set [3].

As to “SAGGSARRPFNVEAWYPPGRSADNVADELASHFFGIKIDDVEVEPNPDNGYYKIEATIRIPPDWLKSAGGSA [r15_930_TrROS]”, the figures for the “folding stability dG unfold” value in data set [1], in data set [2] and in data set [3] were 0.528 ± 0.29 kcal/mol, 0.0136 ± 0.36 kcal/mol and 0.33 ± 0.18 kcal/mol, respectively.

As to “SAGGSARVIRNPDYGMWIRLQPTDGGYTVQIEMYRPDPEDGKPKRRPMTHTIPPDDLPPEIRDLLKSAGGSA [r15_703_TrROS]”, the “folding stability dG unfold” value in data set [1] came out at 0.515 ± 0.12 kcal/mol; in data set [2], 0.442 ± 0.1 kcal/mol; in data set [3] it was 0.573 ± 0.07 kcal/mol.

As for “SAGGSARYYFIVIEIWQPGKPVKFIIVVPKEDPKKFESEINEMFPGYNIDIKVIPFPSPEEAEDLFSAGGSA [r15_889_TrROS]”, the “folding stability dG unfold” value in data set [1] amounted to 2.97 ± 0.088 kcal/mol; in data set [2], 2.26 ± 0.1 kcal/mol; in data set [3], 2.74 ± 0.17 kcal/mol.

On to “SAGGSASDVVPIDKKITITLPGGEKYEVTEMTVLPDGTVKMKIIKKSPNGNPTEEEITLSPEELVDLSAGGS [r16_498_JUSTAS]”, for which the results for the “folding stability dG unfold” value in data set [1], in data set [2] and in data set [3] were 2.594 ± 0.021 kcal/mol, 2.26 ± 0.083 kcal/mol and 2.47 ± 0.058 kcal/mol, respectively.

For “SAGGSASGYYTTTTVEIEPEGDTLTTVTTTTLGVPVTFDPVNNTLTLNLPPDQSLVTTTTVTEVAASAGGSA [r15_1040_JUSTAS]”, the “folding stability dG unfold” value in data set [1] is 0.857 ± 0.033 kcal/mol; in data set [2], 1.02 ± 0.04 kcal/mol; in data set [3], 0.976 ± 0.055 kcal/mol.

Turning to “SAGGSASLESEDVEEVSTSTSVVPLPDGGTATVTTTTYRHKEPGTLVTRTTTTFPGGATTTTVTLLSAGGSA [r15_188_JUSTAS]”, the “folding stability dG unfold” value was determined as 2.04 ± 0.022 kcal/mol in data set [1], 1.69 ± 0.039 kcal/mol in data set [2] and 1.91 ± 0.025 kcal/mol in data set [3].

Consider “SAGGSASLFIPVPPTDTSPVTVEITIGNSKYRATLTVDPNNPNLMTVTLTDPNGGATTTETVPLLDSAGGSA [r15_328_JUSTAS]”, for which the “folding stability dG unfold” value in data set [1] was 1.78 ± 0.031 kcal/mol; in data set [2] it was 1.8 ± 0.034 kcal/mol; in data set [3] it was 1.79 ± 0.069 kcal/mol.

As for “SAGGSASMKIRVYTISLYRPDGESVRDVPIVVPENEPDVDPEALAKAIADELGLVKVEISEEIVPLSAGGSA [r15_333_JUSTAS]”, the results for the “folding stability dG unfold” value in data set [1], in data set [2] and in data set [3] were 1.4 ± 0.31 kcal/mol, 0.589 ± 0.097 kcal/mol and 1.14 ± 0.18 kcal/mol, respectively.

Take “SAGGSASMPLTLTFTTPTRTFTVTIPPSKVSSVTVEEKGPTITVTVEAPDSTITINITPSSVTISASAGGSA [r15_598_JUSTAS]”: the “folding stability dG unfold” value is 4.19 ± 0.13 kcal/mol in data set [1], 2.98 ± 0.13 kcal/mol in data set [2] and 3.8 ± 0.12 kcal/mol in data set [3].

As to “SAGGSASMTIVPVKSEEELEAYIKTKNPKVFLLPLPDGTELVVKVNVDDPSKIEKVSLSKPEEILLSAGGSA [r15_11_JUSTAS]”, the “folding stability dG unfold” value in data set [1] was determined as 0.664 ± 0.16 kcal/mol; in data set [2] it was 0.228 ± 0.12 kcal/mol; in data set [3] it was 0.622 ± 0.25 kcal/mol.

Regarding “SAGGSASMTTKRPVSPELRAKVEAAAAAGDPAITVTLPVTLPDGRTVTLTVTKDPTADTFTATVVSSAGGSA [r15_700_JUSTAS]”, the “folding stability dG unfold” value in data set [1] was 0.367 ± 0.3 kcal/mol; in data set [2], 0.0823 ± 0.33 kcal/mol; in data set [3], 0.221 ± 0.22 kcal/mol.

Consider “SAGGSASNIKTEEKEYPDGKVVVKYSSDPNITYVYYYPPGGLELVETLDSNGNVISKKLVPKGKLISAGGSA [r15_419_JUSTAS]”, for which the results for the “folding stability dG unfold” value in data set [1], in data set [2] and in data set [3] were 0.959 ± 0.097 kcal/mol, 0.607 ± 0.049 kcal/mol and 0.832 ± 0.06 kcal/mol, respectively.
